The results in this text go back to patent US20250230240A1 (LAVA THERAPEUTICS N V, published 2025).

Changes are numbered by the printed parent chain. Names may count otherwise.

Assay [1] concerns the target Vγ9Vδ2 T cell receptor on expanded primary human Vγ9Vδ2 T cells (human) (UniProt Q99603). Nature of the assay: cell-based or functional assay.
The target of assay [2] is Vγ9Vδ2 T cell receptor on expanded primary human Vγ9Vδ2 T cells (human), Q99603. Nature of the assay: cell-based or functional assay.
The target in assay [3] is T1, recombinant purified CD123-Fc fusion protein (Bio-Techne/R&D Systems) (human, UniProt P26951 19-305, limits assumed).
T1 construct: Bought protein; also called recombinant CD123; not shown: Fc part of the bought fusion protein
T1 sequence (looked up): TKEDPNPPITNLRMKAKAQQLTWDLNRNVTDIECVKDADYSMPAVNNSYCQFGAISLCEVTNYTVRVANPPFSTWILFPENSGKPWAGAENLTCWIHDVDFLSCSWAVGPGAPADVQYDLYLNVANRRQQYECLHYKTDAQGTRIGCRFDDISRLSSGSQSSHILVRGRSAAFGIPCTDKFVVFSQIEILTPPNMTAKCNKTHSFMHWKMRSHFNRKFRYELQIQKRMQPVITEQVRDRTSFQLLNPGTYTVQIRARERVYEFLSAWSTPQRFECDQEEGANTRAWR
Nature of the assay: BLI (Octet Red96e), CD123-Fc on anti-human IgG Fc capture sensors; measured twice, SD 0.7. The protocol:
Different sensors were then dipped in different concentrations of humanized 1D2-5C8var1 variants, starting at 50 nM and two-fold dilutions thereof; dilutions were made in 10x kinetic buffer (10×KB) provided by the supplier. From the obtained sensorgrams, the kinetic association- and dissociation rate constants were determined by curve fitting. The association- and dissociation rate constants, when fitting was possible, were used to calculate the affinity of the humanized 1D2-5C8var1 variants for binding to CD123. […] For reference, the non-humanized (parental) 1D2 was included in these experiments.

In assay [4] the target is Recombinant human Vγ9Vδ2-Fc fusion protein (human) (UniProt Q99603). In words: BLI (Octet RED96), Vγ9Vδ2-Fc captured on anti-human Fc sensors, VHH as analyte, 1:1 fit; mean of at least three measurements +/- SD.
For assay [5] the target is unchanged. In words: BLI (Octet), single VHH on recombinant Vγ9Vδ2 TCR.
Assay [6] has the same target. Nature of the assay: BLI (Octet), single VHH on recombinant Vγ9Vδ2 TCR protein.
The target of assay [7] is T1, recombinant purified CD123-Fc fusion …. In words: BLI (Octet Red96e), CD123-Fc on anti-human IgG Fc capture sensors; measured twice, SD 0.4.
The target is the same in assay [8]. Nature of the assay: BLI (Octet Red96e), CD123-Fc on anti-human IgG Fc capture sensors; measured twice, SD 4.3.
Assay [9] has the same target. In words: BLI (Octet Red96e), CD123-Fc on anti-human IgG Fc capture sensors; measured twice, SD 7.5.
The target is the same in assay [10]. In words: BLI (Octet Red96e), CD123-Fc on anti-human IgG Fc capture sensors; measured twice, SD 1.5.
Assay [11] has the same target. In words: BLI (Octet Red96e), CD123-Fc on anti-human IgG Fc capture sensors; measured twice, SD 0.5.
Assay [12] has the same target. Nature of the assay: BLI (Octet Red96e), CD123-Fc on anti-human IgG Fc capture sensors; *low binding (>20 nM), one measurement only.

Chain of Vγ9Vδ2 T cell receptor on expanded primary human Vγ9Vδ2 T cells (human) (Q99603 21-122, stated change not applied, chain 1 of 2): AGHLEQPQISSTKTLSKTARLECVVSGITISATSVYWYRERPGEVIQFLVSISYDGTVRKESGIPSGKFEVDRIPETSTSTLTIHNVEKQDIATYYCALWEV
Chain of Vγ9Vδ2 T cell receptor on expanded primary human Vγ9Vδ2 T cells (human) (A0JD36 20-115, stated change not applied, chain 2 of 2, further chain): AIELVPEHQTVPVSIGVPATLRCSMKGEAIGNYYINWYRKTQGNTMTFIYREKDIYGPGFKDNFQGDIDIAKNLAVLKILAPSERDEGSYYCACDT
Chain of Vγ9Vδ2 T cell receptor on expanded primary human Vγ9Vδ2 T cells (human), Q99603 (Q99603 21-122, stated change not applied, chain 1 of 2): as the sequence (Q99603 21-122, stated change not applied, chain 1 of 2) above
Chain of Vγ9Vδ2 T cell receptor on expanded primary human Vγ9Vδ2 T cells (human), Q99603 (A0JD36 20-115, stated change not applied, chain 2 of 2, further chain): as the sequence (A0JD36 20-115, stated change not applied, chain 2 of 2, further chain) above

In [1], “bispecific VHH 7D12-5C8 (non-humanized) (bispecific antibody)” displayed an EC50 cytotoxicity (A431 tumour cell kill, 24 h) of 0.009 nM and an EC50 degranulation (CD107A+ Vγ9Vδ2 T cells, 4 h, A431 target cells) of 0.01 nM.

B1: bispecific VHH 7D12var8-5C8var1-Y105F (bispecific antibody)
chain: EVQLVESGGGSVQPGGSLRLSCAASGRTSRSYGMGWFRQAPGKEREFVSGISWRGDSTGYADSVKGRFTISRDNAKNTVDLQMNSLRAEDTAVYYCAAAAGSAWYGTLYEYDYWGQGTLVTVSSGGGGSEVQLLESGGGSVQPGGSLRLSCAASGRPFSNYAMSWFRQAPGKEREFVSAISWSGGSTSYADSVKGRFTISRDNSKNTLYLQMNSLRAEDTAVYYCAAQFSGADFGFGRLGIRGYEYDYWGQGTQVTVSS
In assay [2], B1 had an EC50 cytotoxicity (A431 tumour cell kill, 24 h) of 0.0025 nM and an EC50 degranulation (CD107A+ Vγ9Vδ2 T cells, 4 h, A431 target cells) of 0.011 nM.

B2: SEQ ID NO 1 (Table 12): non-humanized (parental) anti-CD123 VHH 1D2 (VHH)
VHH: EVQLVESGGGLVQAGGSLRLSCAASGRTASSYVMGWFRQAPGKEREFVAVINWNGDSTYYTDSVKGRFAISRDNAKNTVYLQMNSLKPEDTAVYYCAADTRREWYRDGYWGPPARYEYDYRGQGTQVTVSS
notes: also called parental 1D2
For the molecule B2, the Kd in [3] amounted to 3.1 nM.

B3: VHH 5C8var1 (VHH)
VHH: EVQLLESGGGSVQPGGSLRLSCAASGRPFSNYAMSWFRQAPGKEREFVSAISWSGGSTSYADSVKGRFTISRDNSKNTLYLQMNSLRAEDTAVYYCAAQFSGADYGFGRLGIRGYEYDYWGQGTQVTVSS
modifications: Y105 partly sulfated (as found for 5C8 and for 1D12var5-5C8var1)
On to B3, for which the dissociation constant (Kd) in assay [4] came to 0.81 nM.

B4: VHH 5C8var1-Y105F/G108A (VHH)
VHH: B3 VHH with Y105F, G108A
For B4, the fold reduction of affinity against 5C8var1-Y105F in [5] amounted to 10 fold. The dissociation constant (Kd) in [6] came out at 9.2 nM.

B5: VHH 5C8var1-Y105S (VHH)
VHH: B3 VHH with Y105S
Take B5: in assay [4], the equilibrium dissociation constant (Kd) turned out to be 1.59 nM.

B6: VHH 5C8var1-Y105F/R109K (VHH)
VHH: B3 VHH with Y105F, R109K
Consider B6, for which the Kd in [6] is 0.82 nM.

B7: VHH 5C8var1-Y105F (VHH)
VHH: B3 VHH with Y105F
As to B7, the results for the Kd in assay [6] and in assay [4] were 0.74 nM and 0.78 nM, respectively.

B8: VHH 5C8var1-Y105F/R109A (VHH)
VHH: B3 VHH with Y105F, R109A
As to B8, the equilibrium dissociation constant (Kd) in assay [6] is 1.2 nM.

B9: SEQ ID NO 26 (Table 12): humanized 1D2 variant as bispecific VHH with 5C8var1 (bispecific antibody)
chain: EVQLVESGGGLVQPGGSLRLSCAASGRTASSYVMGWFRQAPGKEREFVSVINWNGDSTYYADSVKGRFTISRDNSKNTLYLQMNSLRAEDTAVYYCAADTRREWYRDGYWGPPARYEYDYRGQGTQVTVSSGGGGSEVQLLESGGGSVQPGGSLRLSCAASGRPFSNYAMSWFRQAPGKEREFVSAISWSGGSTSYADSVKGRFTISRDNSKNTLYLQMNSLRAEDTAVYYCAAQFSGADYGFGRLGIRGYEYDYWGQGTQVTVSS
As to B9, the dissociation constant (Kd) in assay [7] turned out to be 7.2 nM.

B10: SEQ ID NO 28 (Table 12): humanized 1D2 variant as bispecific VHH with 5C8var1 (bispecific antibody)
chain: B9 chain with G35S, F47W, S49A, L79V, Q126L
As to B10, the Kd in assay [8] is 14.9 nM.

B11: SEQ ID NO 29 (Table 12): humanized 1D2 variant as bispecific VHH with 5C8var1 (bispecific antibody)
chain: B9 chain with L11V, G35S, F47W, S49A, Q126T
For B11, the Kd in assay [9] was found to be 20 nM.

B12: SEQ ID NO 30 (Table 12): humanized 1D2 variant as bispecific VHH with 5C8var1 (bispecific antibody)
chain: B9 chain with G35S, S49A, L79V, Q126L
Take B12: in assay [10], the Kd was 7.7 nM.

B13: SEQ ID NO 34 (Table 12): humanized 1D2 variant as bispecific VHH with 5C8var1 (bispecific antibody)
chain: B9 chain with P14A, F47W, S49A, A61T, T69A, S75A, L79V
Consider B13, for which, in [11], the equilibrium dissociation constant (Kd) worked out at 2.6 nM.

B14: SEQ ID NO 31 (Table 12): humanized 1D2 variant as bispecific VHH with 5C8var1 (bispecific antibody)
chain: B9 chain with F37V, E44G, R45L, F47W, Q126L
On to B14, for which the equilibrium dissociation constant (Kd) in assay [12] was determined as 29.1 nM.

B15: SEQ ID NO 27 (Table 12): humanized 1D2 variant as bispecific VHH with 5C8var1 (bispecific antibody)
chain: B9 chain with F37V, F47W, Q126L
B15: the Kd in assay [12] came to 24.5 nM.

B16: SEQ ID NO 33 (Table 12): humanized 1D2 variant as bispecific VHH with 5C8var1 (bispecific antibody)
chain: B9 chain with G35S, E44G, R45L, F47W, S49A, L79V, Q126L
For the molecule B16, the Kd in assay [12] stood at 44.1 nM.
